This is an account of results in CN111378037A.

In this assay the target is Human IL33-his (Human IL33 (NP_254274.1) Ser112-Thr270 with a C-terminal 6-histidine tag, expressed in E. coli) (human) (UniProt O95760). In words: cell-based or functional assay.
Sequence of UniProt O95760 (O95760 other isoform, or with tags, fused parts or gaps limits assumed, form in doubt): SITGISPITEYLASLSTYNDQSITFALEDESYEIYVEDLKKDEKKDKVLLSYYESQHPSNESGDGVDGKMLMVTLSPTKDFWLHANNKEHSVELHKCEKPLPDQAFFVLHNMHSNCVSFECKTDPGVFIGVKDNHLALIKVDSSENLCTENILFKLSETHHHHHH

Substance 对照抗体 ANB020 (antibody) came in with an IC50 of inhibition of IL-5 production by KU812 cells stimulated with IL33 of 0.51 µg/mL.
